As usually defined, the EC50 is the concentration needed to bring the measured effect to its halfway point. A lower EC50 goes with a more potent agent.

Test [1] has as its target T1, murine LTβR-Ig (mouse, UniProt P50284 31-223).
T1 construct: Expressed and purified in house; also called mLTbR; murine LTBR-Ig
Kind of test: ELISA, muLTBR-Ig coated at 0.2 ug/ml, HRP anti-Flag mAb; the number is C of the printed 4-P fit (A 0.044, B 0.606, D 1.329, R^2 0.999); the points end at OD about 1.1 at 10000 ng/ml, upper plateau not reached. As for the experimental part: (§1) Human and murine ErbB2-Fc were obtained from R&D Systems. Wells of 96-well plates were coated with 2 ug/ml or 0.2 ug/ml of human or murine HER2-Fc by incubation overnight at 4-8° C. with either of these six proteins (80 ul/well of a 0.2 or 2 ug/ml solution in PBS). Wells were emptied, filled completely with a solution of PBS with 1% BSA (blocking buffer) and incubated at room temperature for 1 hour. Wells were emptied, washed twice PBS containing 0.05% Tween 20 (PBST) and filled with the samples (80 ul/well of 3× dilution series of the standard and supernatants in blocking buffer) prepared in another 96-well plate. […] After 1-hour incubation, the wells were emptied and filled with a solution of HRP substrate prepared freshly. The color was left to develop for 3 minutes and was stopped by addition of an equal volume of 1N H₂SO₄. Absorbance was measured at 450 nm using a Plate Reader (SpectraMax, Molecular Devices). The data was processed and graphs were created using SoftMax Pro software.
(§2) Human and murine LTBR-Ig were expressed and purified in house.

Test [2] deals with T1, murine LTβR-Ig. The experiment in a line: ELISA, muLTBR-Ig coated at 2 ug/ml, HRP anti-Flag mAb; the number is C of the printed 4-P fit y=(A-D)/(1+(x/C)^B)+D (A 0.125, B 0.915, D 1.615, R^2 0.999). The procedure: as §1, §2
In test [3] the target is T2, human LTβR-Ig (human, UniProt P36941 31-227).
T2 construct: Expressed and purified in house; also called hLTbR-Ig; human LTBR-Ig
T2 sequence (P36941 31-227): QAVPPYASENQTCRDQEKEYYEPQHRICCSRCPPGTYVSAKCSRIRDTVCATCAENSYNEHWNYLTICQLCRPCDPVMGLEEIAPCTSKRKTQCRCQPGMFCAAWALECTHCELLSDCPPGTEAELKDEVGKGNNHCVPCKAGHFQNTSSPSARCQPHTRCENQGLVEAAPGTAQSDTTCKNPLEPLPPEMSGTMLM
Kind of test: ELISA, huLTBR-Ig coated at 0.2 ug/ml, HRP anti-Flag mAb; the number is C of the printed 4-P fit (A 0.164, B 0.898, D 1.528, R^2 0.999). For orientation: In an ELISA, binding on a coated surface is turned into a signal by an enzyme label.

For test [4], the target named is T3, murine HVEM-Ig (mouse, UniProt Q80WM9 39-210).
T3 construct: Expressed and purified in house
T3 sequence (looked up): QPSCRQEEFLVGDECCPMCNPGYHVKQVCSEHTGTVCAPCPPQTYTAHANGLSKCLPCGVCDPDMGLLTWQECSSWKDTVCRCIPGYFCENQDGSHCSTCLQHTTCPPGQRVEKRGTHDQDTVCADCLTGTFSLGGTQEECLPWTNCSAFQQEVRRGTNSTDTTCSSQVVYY
The experiment in a line: ELISA, muHVEM-Ig coated at 0.2 ug/ml, HRP anti-Flag mAb; the number is C of the printed 4-P fit (A 0.027, B 0.575, D 1.071, R^2 0.994).

Test [5] deals with T4, human HVEM-Ig (human, UniProt Q92956 39-202).
T4 construct: Expressed and purified in house; also called HVEM-Fc; Herpes virus entry mediator-Ig
T4 sequence (looked up): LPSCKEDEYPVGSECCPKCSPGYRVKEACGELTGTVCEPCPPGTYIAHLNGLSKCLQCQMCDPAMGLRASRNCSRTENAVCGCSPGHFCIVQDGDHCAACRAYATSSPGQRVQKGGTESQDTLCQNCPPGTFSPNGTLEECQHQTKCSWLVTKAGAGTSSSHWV
The experiment in a line: ELISA, huHVEM-Ig coated at 0.2 ug/ml, HRP anti-Flag mAb; the number is C of the printed 4-P fit (A 0.22, B 1.302, D 1.232, R^2 0.998). As for the experimental part:
as §1
Human and murine HVEM-Ig were expressed and purified in house.

Test [6] deals with T3, murine HVEM-Ig. Kind of test: ELISA, muHVEM-Ig coated at 2 ug/ml, HRP anti-Flag mAb; the number is C of the printed 4-P fit y=(A-D)/(1+(x/C)^B)+D (A 0.143, B 0.757, D 1.559, R^2 0.999).
Test [7] has as its target T2, human LTβR-Ig. The experiment in a line: ELISA, huLTBR-Ig coated at 2 ug/ml, HRP anti-Flag mAb; the number is C of the printed 4-P fit y=(A-D)/(1+(x/C)^B)+D (A 0.103, B 0.763, D 1.654, R^2 0.999).
Test [8] addresses T4, human HVEM-Ig. Kind of test: ELISA, huHVEM-Ig coated at 2 ug/ml, HRP anti-Flag mAb; the number is C of the printed 4-P fit y=(A-D)/(1+(x/C)^B)+D (A 0.117, B 0.801, D 1.551, R^2 0.998).
For test [9], the target named is T2, human LTβR-Ig. Kind of test: ELISA on LTbR-Ig, dilutions of medium of transfected CHO cells.

T1 sequence (P50284 31-223): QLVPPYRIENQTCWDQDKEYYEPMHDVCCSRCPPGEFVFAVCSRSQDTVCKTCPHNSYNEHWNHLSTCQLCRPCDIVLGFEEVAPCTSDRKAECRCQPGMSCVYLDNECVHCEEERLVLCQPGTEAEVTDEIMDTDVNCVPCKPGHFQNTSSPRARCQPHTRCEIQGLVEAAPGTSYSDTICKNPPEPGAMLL

B1: huLight (ligand, human, UniProt O43557 66-240, looked up)
ligand chain: GEMVTRLPDGPAGSWEQLIQERRSHEVNPAAHLTGANSSLTGSGGPLLWETQLGLAFLRGLSYHDGALVVTKAGYYYIYSKVQLGGVGCPLGLASTITHGLYKRTPRYPEELELLVSQQSPCGRATSSSRVWWDSSFLGGVVHLEAGEKVVVRVLDERLVRLRDGTRSYFGAFMV
notes: soluble, Flag-tagged; also called Flag-huLIGHT (control)
As to B1, the concentration giving a half-maximal response (EC50) was 810 ng/mL in test [1]; 2.39 ng/mL in [2]; 1.33 ng/mL in test [3]; 18.6 ng/mL in test [4]; 1.27 ng/mL in test [5]; 1.34 ng/mL in test [6]. Besides, the concentration for a half-maximal effect (EC50) in test [7] was found to be 2.1 ng/mL; in [8], 1.3 ng/mL.

B2: anti-IGFR C06 Fab-hLIGHT fusion protein (C06-hLIGHT) (other)
heavy: EVQLLESGGGLVQPGGSLRLSCAASGFTFSIYRMQWVRQAPGKGLEWVSGISPSGGTTWYADSVKGRFTISRDNSKNTLYLQMNSLRAEDTAVYYCARWSGGSGYAFDIWGQGTMVTVSSASTKGPSVFPLAPSSKSTSGGTAALGCLVKDYFPEPVTVSWNSGALTSGVHTFPAVLQSSGLYSLSSVVTVPSSSLGTQTYICNVNHKPSNTKVDKKVEPKSCDKGGGGSGGGGSGGGGSGGGGSNPAAHLTGANSSLTGSGGPLLWETQLGLAFLRGLSYHDGALVVTKAGYYYIYSKVQLGGVGCPLGLASTITHGLYKRTPRYPEELELLVSQQSPCGRATSSSRVWWDSSFLGGVVHLEAGEEVVVRVLDERLVRLRDGTRSYFGAFMV
light: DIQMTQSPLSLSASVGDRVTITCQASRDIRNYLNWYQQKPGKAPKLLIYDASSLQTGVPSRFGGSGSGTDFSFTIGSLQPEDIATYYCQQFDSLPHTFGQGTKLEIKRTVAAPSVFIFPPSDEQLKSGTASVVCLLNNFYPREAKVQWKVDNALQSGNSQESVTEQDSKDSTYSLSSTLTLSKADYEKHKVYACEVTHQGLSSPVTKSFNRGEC
notes: Tested as culture medium of transiently transfected CHO cells; not measured for this fusion; also called pBIIBC06-256
Turning to B2, the binding result in test [9] is on record as “binds”.

Values taken from US20130101549A1 (Biogen, published 2013).
